Publication PMC7914367, “Dual-ligand supramolecular nanofibers inspired by the renin-angiotensin system for the targeting and synergistic therapy of myocardial infarction” (Theranostics, 2021)
Each block holds one molecule with its values, some of them ahead of it. Square brackets hold non-standard residues; d marks the D form. Ends that are not written are not given here. * marks the point of attachment. NBD = O=[N+]([O-])c1ccc(*)c2nonc12

What was measured:
[1] = biological target: T1, recombinant human MasR (rhMasR) (Homo sapiens, UniProt P04201); assay: Surface plasmon resonance imaging (SPRi) binding; settings: rhMasR immobilized on CM5 chip, analytes 0.001-10 μM in PBS
T1 construct: purchased Abnova H00004142-G01
T1 sequence (P04201 1-325): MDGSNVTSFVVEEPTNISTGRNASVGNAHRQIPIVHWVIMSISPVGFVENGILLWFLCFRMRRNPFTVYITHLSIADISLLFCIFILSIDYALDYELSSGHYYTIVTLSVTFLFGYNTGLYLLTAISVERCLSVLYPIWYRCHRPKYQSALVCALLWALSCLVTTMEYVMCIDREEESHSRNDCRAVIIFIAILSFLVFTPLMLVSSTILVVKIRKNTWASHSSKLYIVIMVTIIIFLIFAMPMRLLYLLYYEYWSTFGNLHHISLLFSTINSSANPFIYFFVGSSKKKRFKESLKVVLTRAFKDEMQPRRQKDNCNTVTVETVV

MI mouse model [2] = assay: Masson's trichrome staining, infarct size; format: in vivo, C57BL/6 mice; settings: MI mice, 4 weeks, collagen area/LV area, MI group 36.60%, vehicle 1219.84 μg/kg, n = 5
Procedure: Adult male C57BL/6 mice (20-30 g, 8-10 week) were purchased from the laboratory animal center of Southern Medical University, China. The protocols were approved according to the Zhujiang Hospital of Southern Medical University animal care and use committee guidelines, which conform to the guide for the care and use of laboratory animals published by the US National Institutes of Health (8th edition, 2011). […] Next, 100 µL of different drugs were administered intravenously through tail vein injection every 2 days for 3 weeks, while the mice in the Sham and MI groups were treated with an equal volume of PBS.
The mice were sacrificed at 4 weeks after the induction of MI, and hearts and major organs were harvested and fixed in 4% paraformaldehyde overnight and embedded in paraffin. The hearts were sectioned to 5 µm along the short axis transversely across the infarct zone. The major organs were sectioned to 5 µm along the short axis. Following deparaffinization and dehydration, the samples underwent H&E and Masson's trichrome staining. The sections were observed under a microscope to evaluate the therapeutic effect and safety of the drugs. The collagen and LV areas were measured using the Image-Pro Plus software (version 6.0; Media Cybernetics, Silver Spring, MD, USA). Infarct size (%) was calculated as the ratio of the collagen area to the LV area.

MI mouse model [3] = assay: In vivo mechanism: caspase-3 IHC, α-SMA immunofluorescence, type I collagen, TGF-β1, serum cytokines; parameters: species or system C57BL/6 mice; settings: MI mice, 4 weeks post-treatment, immunofluorescence, n = 5
Procedure: Frozen sections were prepared in vivo, as described previously. For drugs distribution, near-infrared laser imager (GE Amersham Typhoon, Sweden) was used to capture full cross section of hearts. For co-localization experiments, the mice hearts were dissected 24 h post-injection of drugs. Anti-AT1R primary antibody (1:200 dilution) was used as the primary antibody. For fibrosis investigation, the frozen sections were incubated with primary antibodies against α-SMA (1:400 dilution). The staining signals were visualized using FITC-labeled Goat Anti-Rabbit IgG (1:200 dilution) or Cy3-labeled Goat Anti-Rabbit IgG (1:200 dilution). The sections were counterstained with DAPI and examined under a laser confocal scanning microscope (Leica TCS SP8, Germany).
The heart tissues were fixed in 4% paraformaldehyde, dehydrated in ethanol, cleared in xylene, and embedded in paraffin. The samples were then cut into 6 μm sections on a microtome and deparaffinized. The sections were blocked by incubating with 1% BSA at room temperature for 30 min and then incubated overnight with anti-cleaved caspase-3 (1:700 dilution), anti-AT1R (1:100 dilution), anti-Collagen I (1:200 dilution) at 4 °C. Next, the sections were washed and incubated with secondary antibodies (1:500 dilution) at room temperature. The tissue sections were incubated with diaminobenzidine and counterstained with hematoxylin, dehydrated, and mounted before viewing under a microscope.
The serum and CM were collected at the indicated time points from the different groups of mice. The levels of TNF-α, IL-6, ALT, Cre, and TGF-β1 were measured using ELISA kits according to the manufacturer's protocol. The absorbance was measured at 450 nm using a microplate reader.

NRCMs = assay: TUNEL staining of OGD NRCMs; format: cell-based, rat; settings: 10 μM, 2-3 h, OGD group 26.70%, n = 3
AT1R = biological target: T2, AT1R (Rattus norvegicus, UniProt P25095); assay: Fluorescent co-localization with AT1R in NRCMs; format: cell-based; settings: OGD-conditioned NRCMs, 50 μM, 2 h, microscopy
T2 construct: NRCMs under OGD conditions expressed high levels of AT1R (red fluorescence); endogenous in cells; host or cells: primary neonatal rat cardiomyocytes (NRCMs) from Sprague-Dawley rats, normoxia or OGD
T2 sequence (P25095 1-359): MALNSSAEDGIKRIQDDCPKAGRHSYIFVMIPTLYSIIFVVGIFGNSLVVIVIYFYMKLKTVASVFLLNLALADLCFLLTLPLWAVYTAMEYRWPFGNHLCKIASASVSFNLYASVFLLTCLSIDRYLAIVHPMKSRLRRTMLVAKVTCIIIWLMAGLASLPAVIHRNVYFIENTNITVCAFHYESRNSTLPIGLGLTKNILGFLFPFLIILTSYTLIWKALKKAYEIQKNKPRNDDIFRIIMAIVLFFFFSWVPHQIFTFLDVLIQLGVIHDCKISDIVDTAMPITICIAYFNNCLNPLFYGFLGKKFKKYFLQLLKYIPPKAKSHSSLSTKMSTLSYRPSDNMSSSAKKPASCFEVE
Procedure: Next, the cells were blocked by incubating with goat serum for 30 min and incubated with primary antibodies overnight at 4 °C. The primary antibodies used here included anti-AT1R (1:200 dilution), anti-cTNT (1:500 dilution), anti-P65 (1:800 dilution), and anti‐α-SMA (1:400 dilution). The cells were incubated with FITC-labeled Goat Anti-Rabbit IgG (1:200 dilution) or Cy3-labeled Goat Anti-Mouse IgG (1:200 dilution) for 2 h at room temperature. The cells were counterstained with DAPI and imaged using a fluorescence microscope (Leica Dmi8, Germany).
(50 μM), SAA1-7+Tel (50 μM) and NBDAng1-7+Tel (50 μM) for further 2 h. PBS was then used to wash cells for three times and 4% paraformaldehyde was added to fix cells for 20 min at room temperature. After being blocked with goat serum for 30 min, rabbit anti-AT1R primary antibody (1:200 dilution) was added to incubat e wit h NRCMs overnight at 4 ℃. After being washed with PBS for three times, Cy3-labeled Goat Anti-Rabbit IgG (1:200 solut ion) was added and incubated with cells for 2 h at room temperature. Cells were then stained with DAPI. The fluorescence i mages were obtained by the fluorescence microscope (λexc =532 nm for AT1R, λexc = 488 nm for NBD, λexc = 405 nm for DAPI).

[4] = biological target: T3, recombinant human MasR (Recombinant Human MAS1 protein) (human) (UniProt P04201); assay: SPR; SPR imaging (SPRi, PlexArray HT); rhMasR immobilised on a CM5 sensor chip; Ang1-7, SAA1-7 and TDCNfs diluted in PBS at 0.001 to 10 μM
T3 sequence (P04201 whole entry, looked up): T1 sequence (P04201 1-325)

Kd [4]: 16.5 nM
binding value (RU) [4]: 58.2 RU
B1: telmisartan-doped co-assembly nanofibers (peptide)
peptide: {NBD}-[dF][dF][dY][dE][dE]GDRVYIHP
modifications: also: co-assembly nanofibers doped with telmisartan

Kd [4]: 12.6 nM
binding value (RU) [4]: 62.3 RU
B2: self-assembly angiotensin 1-7 (NBD-DF-DF-DY-DE-DE-G-DRVYIHP) (peptide)
peptide: {NBD}-[dF][dF][dY][dE][dE]GDRVYIHP

Kd [4]: 10.3 nM
binding value (RU) [4]: 65.1 RU
B3: angiotensin 1-7 (peptide)
peptide: DRVYIHP

More lines, now with the values behind:

Molecule: CC[C@H](C)[C@H](NC(=O)[C@H](Cc1ccc(O)cc1)NC(=O)[C@@H](NC(=O)[C@H](CCCNC(=N)N)NC(=O)[C@@H](N)CC(=O)O)C(C)C)C(=O)N[C@@H](Cc1c[nH]cn1)C(=O)N1CCC[C@H]1C(=O)O [Ang1-7, DRVYIHP]
Kd [1]: 10.3 nM

Molecule: NBD-DFDFDYDEDEG-YRVIPHD [vehicle]
infarct size (MI mouse model [2]): 32.92%
α-SMA expression in the non-infarcted area (MI mouse model [3]): inhibited to a certain extent
TUNEL-positive NRCMs (NRCMs): 23.5%

Molecule: NBDAng1-7: Ang1-7 endowed with fluorescence by NBD labeling
co-localization with AT1R (AT1R): slightly overlapped signal
